B1: TPR t1 (parent)
chain: GACCAAUCUGCCCUCAGAGCUCGAGAACAUCUUCGGAUGCAGAGGAGGCAGGCUUCGGUGGCGCGAUAGCGCCAACGUCCUCAACCUCCAAUGCAUCCCACCACAUGAUGAUGCCUGAAGAGCCUUGGUUUUUUG

Variants of B1 are the subject of this data set. The experiment in a line: polymerase ribozyme fitness, log enrichment relative to wild type (log ratio); higher = more active; in vitro selection for triplet polymerase activity. A digest of the protocol: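 The heterodimeric triplet polymerase ribozyme's subunits were each mutagenized into PCR-built libraries and transcribed. Every library was selected once, in triplicate, by annealing with a biotinylated primer, the partner subunit and triplets, incubating frozen at −7 °C, gel-excising extended constructs, capturing on streptavidin beads and running RT-PCR. Input and output libraries were Illumina-sequenced, with genotypes kept only at ≥10 input reads and ≥1 read per output. Fitness, from inverse-variance-weighted replicate averages, is the base-2 logarithm of genotype enrichment over wild-type enrichment.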
As to C3A C56A G135U, the “polymerase ribozyme fitness (log ratio)” value was -2.75.
As for C3A C72U, the figure is -1.75.
To C3G G19A A29U G48C C72G U106A G110C C114G belongs -7.4; to C3U A46C C56U A121U, 1.54.
To C3G A119G belongs -0.446; to C3A U55C G61A C86U, -2.
As to C3U C79U C94U G110U, the “polymerase ribozyme fitness (log ratio)” value is -1.77.
To C3G C4G G25U C28U C34U G71U G107U U112G C114A A121G belongs -6.59; to C3G G113A, -3.52.
To C3A U9A G61C belongs -2.34; to C3U C85A G117A, -2.52.
To C3G C4A C40U C53A C70U C86A C98U U112A belongs -5.43.
Consider C3U G60C, for which the “polymerase ribozyme fitness (log ratio)” value is -0.334.
As for C3U G60A, the figure is -0.489.
As for C3U C4A C53G C62U C88U A90C C123A U130C, the figure is -0.74; as for C3A G42U A46U C73A U112A, -2.77.
As for C3A U106G G113U, the figure is -6.02; as for C3U G42C A91C, -2.67.
Regarding C3U A84G G120A, the “polymerase ribozyme fitness (log ratio)” value is -0.608.
In the case of C3U G48A G60C G113A, the “polymerase ribozyme fitness (log ratio)” value was -1.14.
To C3U G17U G63U C73U belongs -4.23; to C3A U21C U96C C124G, 0.974; to C3U C70U U78G U87A, -1.1.
To C3U G39U U81C A111C belongs -2.34; to C3U G23A, -5.54; to C3U A74U U106G G110A A119G, -4.14.
As for C3G G128U, the figure is -1.24; as for C3U G52A A121U, 1.95.
For the variant C3A U7A C123U, the “polymerase ribozyme fitness (log ratio)” value stood at 0.267.
Regarding C3G U78A U96A C123G U131C, the “polymerase ribozyme fitness (log ratio)” value was -0.54.
As for C3U G39U G61A G93C C101A, the figure is -3.7; as for C3U G44U C82A, -1.68.
To C3A G57A U92C belongs -5.31; to C3G C62U G120C, -0.751.
As to C3U C15U G63A C101A, the “polymerase ribozyme fitness (log ratio)” value was -3.66.
As for C3U C124G, the figure is 2.17; as for C3U C124A, 1.2; as for C3U C15G C72A, -3.04.
To C3U C53U G117U A118G belongs -0.935.
To C3G C62U G93U C98U G128C belongs -2.79.
For the variant C3G C62A C82G, the “polymerase ribozyme fitness (log ratio)” value is -3.81.
To C3G A27U G52A C72U U129A belongs -4.63; to C3U A6U G48A C115U, -2.28.
As for C3G C97G, the figure is -5.54.
To C3U C12A U87C C124U belongs -0.256.
On to C3U C13U G44U U55C G63A A108U U112G G113C, for which the “polymerase ribozyme fitness (log ratio)” value is -6.03.
As for C3U C53G U112A, the figure is 0.998; as for C3G U7A C12U C62A G117U, -6.14; as for C3G A16U C40U C73A, -4.45.
As for C3G G39U, the figure is -2.39; as for C3G G61C, -3.19.
To C3G G61U belongs -1.85.
C3G U9A C72A G107U: the “polymerase ribozyme fitness (log ratio)” value is -6.54.
Regarding C3U C56G C79A C124G, the “polymerase ribozyme fitness (log ratio)” value was -0.114.
As for C3U C12A G69U G117A, the figure is -2.56; as for C3U C12U C72U C85A, -1.01.
As for C3U A29G A46U G61A A66U A83G C86A C101U U132A, the “polymerase ribozyme fitness (log ratio)” value was -4.12.
Consider C3U C8A G57U G77U C79U A83C C89U C101G, for which the “polymerase ribozyme fitness (log ratio)” value was -3.64.
As to C3U C13A G61A C98U, the “polymerase ribozyme fitness (log ratio)” value was -3.6.
As for C3G C4G C53U G60U G93A, the figure is -3.06.
To C3G C12A C114A G128C belongs -3.31; to C3U C56U, -0.891.
To C3U G45A G61U A100U C124U belongs 0.286.
Consider C3U G35U C70A C99A C115A, for which the “polymerase ribozyme fitness (log ratio)” value is -4.32.
In the case of C3U C12U, the “polymerase ribozyme fitness (log ratio)” value is -1.59.
As for C3U A6U, the figure is 0.0323.
Take C3G C72A C94G C124A: the “polymerase ribozyme fitness (log ratio)” value is -1.46.
To C3U A16G A90G U112G U116C belongs 0.876; to C3U G39A G69U A105C G120U G128C, -3.77.
As for C3U G17C C22A A29G G45A G69U C89U, the figure is -3.84; as for C3A G44C U112G C124U U125C, -1.64; as for C3U A43G U55G A111G U126A, -4.64.
As for C3G G120C, the figure is -0.918.
With C3U C28A C72G U112A, the “polymerase ribozyme fitness (log ratio)” value is -3.66.
As for C3A C73G A119U U129C, the figure is -1.93.
To C3U A95G belongs 0.0555; to C3U C86U C104A, -1.75.
To C3U C40U C62U A75U G93C U96G belongs -3.29; to C3A C88A, -2.21.
Regarding C3A C53A C73U, the “polymerase ribozyme fitness (log ratio)” value is -1.17.
Consider C3A G128U, for which the “polymerase ribozyme fitness (log ratio)” value is -1.03.
To C3U C11A G47A G110U belongs -3.77; to C3A C64G C76U G110C, -6.8; to C3U C34G G63U, -6.26.
As for C3G A18U A43U C114G, the figure is -4.61; as for C3G C70U C115U G127U, -4.54; as for C3A C20U C101A A105C C114U U131G, -2.47.
For C3U C62A C115A U125G, the “polymerase ribozyme fitness (log ratio)” value was -1.86.
As for C3G C49G C72U A91C G128A U130G, the figure is -3.78.
For C3A C89U U96G C124A, the “polymerase ribozyme fitness (log ratio)” value was 0.0977.
To C3U G45A G71A C79U belongs -1.81; to C3G G71U, -2.64.
To C3U C73U U87C C88U A111G C123A belongs -3.08; to C3U G17U C72U, -2.73; to C3A C73G, -1.48.
As for C3U C53U G57C U59A C88G, the figure is -2.35.
Turning to C3U C13U G63A, the “polymerase ribozyme fitness (log ratio)” value was -1.19.
To C3U C12U A18U U87A C88U belongs -2.52; to C3U A100C G135C, -2.44.
With C3A G57C A90U C114A U132C, the “polymerase ribozyme fitness (log ratio)” value was -3.92.
For the variant C3U G57C C62U C97U A108G C123U C124G, the “polymerase ribozyme fitness (log ratio)” value is -1.18.
To C3U C13A G69U A121G belongs 1.51.
As for C3U G39A G69A A105C G120U G128C, the figure is -6.86.
As for C3A G71C, the figure is -3.03.
C3A G45U G61A C88U A90C G113A: the “polymerase ribozyme fitness (log ratio)” value was -3.92.
As for C3G G36U A83U, the figure is -3.46; as for C3A U9G C40U G57U A105G, -4.58; as for C3U C40G G47A C62U A84G, -3.81.
As for C3U C53U, the figure is -1.24.
To C3U A68G belongs -3.05; to C3U C11U A50U C64U U81G C102U G128A, -3.47; to C3A G127U, -0.622.
As to C3A U7A A121G, the “polymerase ribozyme fitness (log ratio)” value is 1.21.
As for C3U G48U C49G C99U, the figure is -4.65.
As for C3G A6U, the “polymerase ribozyme fitness (log ratio)” value is -4.02.
In the case of C3U G44U, the “polymerase ribozyme fitness (log ratio)” value was -1.62.
As for C3U G44A, the figure is -1.11; as for C3U C13U C15U G48U G113A, -2.97.
To C3G A37U C49U A100U G113A U129A belongs -4.75.
As for C3G G42A C56G U106C G113U A121U, the figure is -4.31; as for C3G C73A C76U A90G G120U G127U, -3.52.
C3G G61U C94A A95C C124A U132C U133C: the “polymerase ribozyme fitness (log ratio)” value was -3.25.
As for C3U C82A, the figure is -0.533; as for C3U A37C G122A, -2.49; as for C3G C11A C115U, -6.42.
As to C3G C22U G61C U109A, the “polymerase ribozyme fitness (log ratio)” value was -6.73.
For the variant C3A G51C G69U, the “polymerase ribozyme fitness (log ratio)” value was -2.31.
To C3U C8U G61C G120A belongs 0.504; to C3U C12U G63A A66C U133A, -2.5.
To C3U G42U belongs -1.55.
To C3G A27G C53U C72G C79A C98G U116C belongs -6.51; to C3U C13U A37C C70A, -1.1.
On to C3A C20U G65A C101A A105C C114U U131G, for which the “polymerase ribozyme fitness (log ratio)” value was -7.29.
To C3U A29G G48C C73G C79G C101U belongs -5.51; to C3U C13U C104A, -1.31.
Consider C3U G10A, for which the “polymerase ribozyme fitness (log ratio)” value turned out to be 0.634.
Take C3G C8G A43U C72U A90C: the “polymerase ribozyme fitness (log ratio)” value is -2.6.
Consider C3G A5C G48U U54C U92G, for which the “polymerase ribozyme fitness (log ratio)” value was -4.45.
As for C3G G57A G60A A111C, the figure is -2.99; as for C3U C40U, -1.92; as for C3U C8A U54A G69C, -1.46.
As for C3A C53A G57A C70A A95C G117C, the figure is -5.27; as for C3G G69U A90U G93A U112C, -1.26.
To C3U C11G U21A U129A belongs -0.924; to C3U A50U G52U, -3.28.
On to C3A C20G G60A C79U C98G C99A C123G, for which the “polymerase ribozyme fitness (log ratio)” value was -2.5.
To C3A C70U belongs -1.64; to C3A U33A C86A U112G, -6.24.
To C3A U9G C98U belongs -1.51.
To C3A G110C belongs -5.4; to C3G G48C, -2.83.
In the case of C3U C123U, the “polymerase ribozyme fitness (log ratio)” value was 0.881.
On to C3G G10U G39U C72U C85U, for which the “polymerase ribozyme fitness (log ratio)” value was -3.78.
As for C3A G52U G60U, the figure is -1.88; as for C3U C49U, -1.18.
Take C3U C49G: the “polymerase ribozyme fitness (log ratio)” value is -1.16.
In the case of C3U C49A, the “polymerase ribozyme fitness (log ratio)” value was determined as 0.209.
To C3U G52A belongs -0.0464.
As for C3A C40G G48C G77C C124U U133A, the figure is -4.13; as for C3G G47U C64A A90C C104U G113A, -6.9; as for C3U A5C C15A G69C U109A U116A, -5.71.
To C3A G39A U54C C70U C104U belongs -2.33; to C3A G52A C70U C104A C124G, -2.12.
In the case of C3U C12G C13U C62U G120A, the “polymerase ribozyme fitness (log ratio)” value is 2.11.
As for C3A G61A C79G U112A G135C, the figure is -2.83; as for C3U G47U C53G U96G C104U A118G C124U, -1.09; as for C3A U38G A103C A118G C123G, -6.41.

The values above are taken from the RNAGym collection of RNA variant scans (doi:10.1073/pnas.2313332121).
